From the supplement of paper PMC12667976
± gives the standard error.

B1: library; numbered along this chain (parent)
chain: MATDAALRRLLRLHRTEIAVAVDSAFPLLHALADHDVVPEDKFQETLHLKEKEGCPQAFHALLSWLLTQDSTAILDFWRVLFKDYNLERYGRLQPILDSFPKDVDLSQPRKGRKPPAVPKALVPPPRLPTKRKASEEARAAAPAALTPRGTASPGSQLKAKPPKKPESSAEQQRLPLGNGIQTMSASVQRAVAMSSGDVPGARGAVEGILIQQVFESGGSKKCIQVGGEFYTPSKFEDSGSGKNKARSSSGPKPLVRAKGAQGAAPGGGEARLGQQGSVPAPLALPSDPQLHQKNEDECAVCRDGGELICCDGCPRAFHLACLSPPLREIPSGTWRCSSCLQATVQEVQPRAEEPRPQEPPVETPLPPGLRSAGEEVRGPPGEPLAGMDTTLVYKHLPAPPSAAPLPGLDSSALHPLLCVGPEGQQNLAPGARCGVCGDGTDVLRCTHCAAAFHWRCHFPAGTSRPGTGLRCRSCSGDVTPAPVEGVLAPSPARLAPGPAKDDTASHEPALHRDDLESLLSEHTFDGILQWAIQSMARPAAPFPS

Variants of: B1
Experiment: AIRE transcriptional activation functional score (insulin promoter-GFP; nonsense median 0, synonymous median 1) (normalised score); higher = higher AIRE activity (more reporter activation)
Details: with insulin promoter-GFP reporter in HEK293
Method in brief: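 The functional score compares variant enrichment between select and non-select populations after subtracting wild type. To obtain it, codon-optimized AIRE NNN-codon libraries spanning three regions were placed by Bxb1 recombinase into Flp-In T-REx HEK293 landing-pad cells with an insulin core promoter-GFP reporter. Cells with the top 10% GFP and unselected integrants were tile-sequenced after mCherry+, BFP− integrants had been sorted at day 7 and grown 7 more days. Only variants with 10 counts per million in non-select were kept, rescaled to nonsense median 0 and synonymous median 1, and averaged across biological replicates.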

AIRE transcriptional activation functional score: each site, then its substitutions
A451: H 0.282 ± 0.15; W 0.516 ± 0.2; F -0.0649 ± 0.075; L 0.76 ± 0.37; G 0.686 ± 0.21; V 0.438 ± 0.078; Q -0.927 ± 0.22; R 1.19 ± 0.44; I 0.663 ± 0.18; S 0.496 ± 0.4; K 0.893 ± 0.1; N 0.582 ± 0.09; E 1.02 ± 0.12; P 0.142 ± 0.14; T 0.528 ± 0.23; Y 0.593 ± 0.28; D 0.631 ± 0.11
D442: C 0.845 ± 0.059; R 0.257 ± 0.081; I -0.0637 ± 0.095; F -0.04 ± 0.047; Q 1.03 ± 0.076; E 0.869 ± 0.1; T 0.24 ± 0.072; A 0.791 ± 0.17; S 0.83 ± 0.2; P 0.0269 ± 0.18; Y 0.265 ± 0.11; H 0.38 ± 0.23; G 1.08 ± 0.099; V -0.000931 ± 0.14; M 0.124 ± 0.025; W -0.0188 ± 0.023; L 0.0551 ± 0.12; N 0.93 ± 0.046; K 0.322 ± 0.1
R433: Y 0.349 ± 0.15; V 0.599 ± 0.19; W 1.4 ± 0.071
C446: R 0.0344 ± 0.14; L 0.0671 ± 0.16; M -0.496 ± 0.086; I 0.167 ± 0.25; K 0.294 ± 0.11; W -0.0678 ± 0.057; D -0.0826 ± 0.091; Y -0.213 ± 0.15; Q -0.0282 ± 0.15; S -0.132 ± 0.15; F 0.403 ± 0.22; T -0.0482 ± 0.24; V -0.492 ± 0.2; P 0.448 ± 0.13; G 0.144 ± 0.14; E -1.3 ± 0.16; A 0.113 ± 0.089
V436: G 0.916 ± 0.37; F 1.11 ± 0.13; D 0.874 ± 0.21; M 0.555 ± 0.13; E 0.492 ± 0.29; R 0.525 ± 0.33; I 1.35 ± 0.16; H 0.883 ± 0.41; S 0.217 ± 0.2; N 1.19 ± 0.082; L 0.995 ± 0.26; Y 1.28 ± 0.29; K 1.21 ± 0.1; Q 0.854 ± 0.3; A 0.0856 ± 0.18; C 1.33 ± 0.37; T 0.824 ± 0.31; P 0.39 ± 0.15
C449: F 0.317 ± 0.12; I -0.224 ± 0.16; G 0.257 ± 0.22; H 0.515 ± 0.12; N -0.014 ± 0.099; E 0.0473 ± 0.093; S -0.103 ± 0.24; V 0.0568 ± 0.16; Y 0.106 ± 0.096; L 0.195 ± 0.21; D 0.418 ± 0.038; T 0.263 ± 0.08; A -0.278 ± 0.3; P 0.244 ± 0.13; W 0.0652 ± 0.069; M -0.542 ± 0.087; R 0.252 ± 0.31; Q 0.388 ± 0.15
R445: K 1.17 ± 0.26; C 0.188 ± 0.15; G 0.978 ± 0.24; L 0.998 ± 0.18; F 0.192 ± 0.16; Q 0.898 ± 0.28; D 0.596 ± 0.048; I 0.985 ± 0.14; N 1.25 ± 0.17; E 0.42 ± 0.073; H 0.423 ± 0.093; T 0.578 ± 0.34; A 0.543 ± 0.18; S 0.952 ± 0.26; P 0.738 ± 0.067; W 0.804 ± 0.14; V 0.784 ± 0.24
A452: S 1.04 ± 0.19; P 0.719 ± 0.14; T 0.973 ± 0.13; R 0.86 ± 0.35; C 1.13 ± 0.14; D 0.712 ± 0.14; G 0.775 ± 0.21; M 0.473 ± 0.13; H 0.816 ± 0.12; F 0.934 ± 0.055; V 0.915 ± 0.25; L 0.666 ± 0.65; E 1.54 ± 0.056; K 0.517 ± 0.12
L444: N 0.882 ± 0.43; C 1.96 ± 0.078; H 1.18 ± 0.073; T 0.477 ± 0.063; E 0.903 ± 0.13; G 1.27 ± 0.24; D 1.55 ± 0.075; R 1.17 ± 0.17; M -0.874 ± 0.42; W 0.452 ± 0.12; Y 0.814 ± 0.26; K 0.847 ± 0.12; A 0.718 ± 0.21; S 1.09 ± 0.34; F 0.489 ± 0.068; P 0.0281 ± 0.11; Q 0.642 ± 0.092; V 1.13 ± 0.18; I 1.08 ± 0.18
T447: Y 0.458 ± 0.2; E 0.425 ± 0.056; L 1.2 ± 0.25; W 1.32 ± 0.029; F 0.707 ± 0.19; C 0.201 ± 0.3; Q 0.797 ± 0.062; S 1.29 ± 0.18; I 1.4 ± 0.15; R 0.679 ± 0.35; N 1.26 ± 0.23; G 1.03 ± 0.11; A 1.02 ± 0.4; M 1.49 ± 0.076; V 1.18 ± 0.26; D 0.924 ± 0.24
C437: I 0.106 ± 0.14; W 0.0698 ± 0.029; N 0.452 ± 0.035; R 0.0167 ± 0.12; L 0.255 ± 0.17; E 0.473 ± 0.29; P 0.172 ± 0.16; S 0.389 ± 0.13; F 0.199 ± 0.17
